Results published in the supplement of paper PMC5998384.

Columns and labels:
HeLa Kyoto [1] = test: melting temperature (median over replicates), in situ; higher = more thermally stable
HeLa Kyoto [2] = test: thermal stability score vs G1/S (z-score of summed log2 fold changes over temperatures); higher = more thermally stable than in G1/S
HeLa Kyoto [3] = test: solubility change mitosis vs G1/S (difference of NP-40 vs SDS log2 ratios) (log2 ratio difference); higher = more soluble in mitosis
HeLa Kyoto [4] = test: solubility in G1/S (NP-40 vs SDS abundance) (log2 ratio); higher = more soluble; settings: cell cycle stage: G1/S
[5] = cell cycle stage: early G1 (4.5 h after nocodazole release)
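For melting temperature (median over replicates), in situ in this document: HeLa Kyoto cells synchronized by double thymidine or nocodazole block, proteins quantified by TMT10plex mass spectrometry, three independent biological replicates.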
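For solubility change mitosis vs G1/S (difference of NP-40 vs SDS log2 ratios) in this document: synchronized HeLa Kyoto cells (double thymidine block for G1/S, nocodazole release for mitosis), protein amounts in NP-40 versus SDS lysates quantified by mass spectrometry, three biological replicates.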
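For solubility in G1/S (NP-40 vs SDS abundance) in this document: HeLa Kyoto cells arrested at G1/S by double thymidine block, proteins quantified by TMT10plex mass spectrometry in mild NP-40 versus SDS extracts, three biological replicates.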
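For thermal stability score vs G1/S (z-score of summed log2 fold changes over temperatures) in this document: synchronized HeLa Kyoto cells, proteins quantified by TMT10plex mass spectrometry, three biological replicates, mitosis taken 0.5 h after nocodazole release, G1/S directly after double thymidine block.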

## MVDREQLVQKARLAEQAERYDDMAAAMKNVTELNEPLSNEERNLLSVAYKNVVGARRSSWRVISSIEQKTSADGNEKKIEMVRAYREKIEKELEAVCQDVLSLLDNYLIKNCSETQYESKVFYLKMKGDYYRYLAEVATGEKRATVVESSEKAYSEAHEISKEHMQPTHPIRLGLALNYSVFYYEIQNAPEQACHLAKTAFDDAIAELDTLNEDSYKDSTLIMQLLRDNLTLWTSDQQDDDGGEGNN [YWHAG]
HeLa Kyoto [1]; cell cycle stage: G1/S
  melting temperature: 55.1 °C
HeLa Kyoto [1]; cell cycle stage: mitosis
  melting temperature: 54.8 °C
HeLa Kyoto [2]; [5]
  thermal stability score: -2.23
HeLa Kyoto [2]; cell cycle stage: mitosis
  thermal stability score: -4.24
HeLa Kyoto [3]
  solubility change mitosis (log2): 0.206
HeLa Kyoto [4]
  solubility in G1/S (log2): 0.35

## MVEEENIRVVRCGGSELNFRRAVFSADSKYIFCVSGDFVKVYSTVTEECVHILHGHRNLVTGIQLNPNNHLQLYSCSLDGTIKLWDYIDGILIKTFIVGCKLHALFTLAQAEDSVFVIVNKEKPDIFQLVSVKLPKSSSQEVEAKELSFVLDYINQSPKCIAFGNEGVYVAAVREFYLSVYFFKKKTTSRFTLSSSRNKKHAKNNFTCVACHPTEDCIASGHMDGKIRLWRNFYDDKKYTYTCLHWHHDMVMDLAFSVTGTSLLSGGRESVLVEWRDATEKNKEFLPRLGATIEHISVSPAGDLFCTSHSDNKIIIIHRNLEASAVIQGLVKDRSIFTGLMIDPRTKALVLNGKPGHLQFYSLQSDKQLYNLDIIQQEYINDYGLIQIELTKAAFGCFGNWLATVEQRQEKETELELQMKLWMYNKKTQGFILNTKINMPHEDCITALCFCNAEKSEQPTLVTASKDGYFKVWILTDDSDIYKKAVGWTCDFVGSYHKYQATNCCFSEDGSLLAVSFEEIVTIWDSVTWELKCTFCQRAGKIRHLCFGRLTCSKYLLGATENGILCCWNLLSCALEWNAKLNVRVMEPDPNSENIAAISQSSVGSDLFVFKPSEPRPLYIQKGISREKVQWGVFVPRDVPESFTSEAYQWLNRSQFYFLTKSQSLLTFSTKSPEEKLTPTSKQLLAEESLPTTPFYFILGKHRQQQDEKLNETLENELVQLPLTENIPAISELLHTPAHVLPSAAFLCSMFVNSLLLSKETKSAKEIPEDVDMEEEKESEDSDEENDFTEKVQDTSNTGLGEDIIHQLSKSEEKELRKFRKIDYSWIAAL [WDR75]
HeLa Kyoto [1]; cell cycle stage: G1/S
  melting temperature: 50 °C
HeLa Kyoto [1]; cell cycle stage: mitosis
  melting temperature: 50.1 °C
HeLa Kyoto [2]; [5]
  thermal stability score: 1.76
HeLa Kyoto [2]; cell cycle stage: mitosis
  thermal stability score: 0.92
HeLa Kyoto [3]
  solubility change mitosis (log2): 0.372
HeLa Kyoto [4]
  solubility in G1/S (log2): -1.21

## MVHFCGLLTLHREPVPLKSISVSVNIYEFVAGVSATLNYENEEKVPLEAFFVFPMDEDSAVYSFEALVDGKKIVAELQDKMKARTNYEKAISQGHQAFLLEGDSSSRDVFSCNVGNLQPGSKAAVTLKYVQELPLEADGALRFVLPAVLNPRYQFSGSSKDSCLNVKTPIVPVEDLPYTLSMVATIDSQHGIEKVQSNCPLSPTEYLGEDKTSAQVSLAAGHKFDRDVELLIYYNEVHTPSVVLEMGMPNMKPGHLMGDPSAMVSFYPNIPEDQPSNTCGEFIFLMDRSGSMQSPMSSQDTSQLRIQAAKETLILLLKSLPIGCYFNIYGFGSSYEACFPESVKYTQQTMEEALGRVKLMQADLGGTEILAPLQNIYRGPSIPGHPLQLFVFTDGEVTDTFSVIKEVRINRQKHRCFSFGIGEGTSTSLIKGIARASGGTSEFITGKDRMQSKALRTLKRSLQPVVEDVSLSWHLPPGLSAKMLSPEQTVIFRGQRLISYAQLTGRMPAAETTGEVCLKYTLQGKTFEDKVTFPLQPKPDVNLTIHRLAAKSLLQTKDMGLRETPASDKKDALNLSLESGVISSFTAFIAINKELNKPVQGPLAHRDVPRPILLGASAPLKIKCQSGFRKALHSDRPPSASQPRGELMCYKAKTFQMDDYSLCGLISHKDQHSPGFGENHLVQLIYHQNANGSWDLNEDLAKILGMSLEEIMAAQPAELVDSSGWATILAVIWLHSNGKDLKCEWELLERKAVAWMRAHAGSTMPSVVKAAITFLKSSVDPAIFAF [VWA5A]
HeLa Kyoto [1]; cell cycle stage: G1/S
  melting temperature: 52.3 °C
HeLa Kyoto [1]; cell cycle stage: mitosis
  melting temperature: 52.2 °C
HeLa Kyoto [2]; [5]
  thermal stability score: -0.428
HeLa Kyoto [2]; cell cycle stage: mitosis
  thermal stability score: -0.133
HeLa Kyoto [3]
  solubility change mitosis (log2): -0.132
HeLa Kyoto [4]
  solubility in G1/S (log2): 0.137

## MVKLDIHTLAHHLKQERLYVNSEKQLIQRLNADVLKTAEKLYRTAWIAKQQRINLDRLIITSAEASPAECCQHAKILEDTQFVDGYKQLGFQETAYGEFLSRLRENPRLIASSLVAGEKLNQENTQSVIYTVFTSLYGNCIMQEDESYLLQVLRYLIEFELKESDNPRRLLRRGTCAFSILFKLFSEGLFSAKLFLTATLHEPIMQLLVEDEDHLETDPNKLIERFSPSQQEKLFGEKGSDRFRQKVQEMVESNEAKLVALVNKFIGYLKQNTYCFPHSLRWIVSQMYKTLSCVDRLEVGEVRAMCTDLLLACFICPAVVNPEQYGIISDAPINEVARFNLMQVGRLLQQLAMTGSEEGDPRTKSSLGKFDKSCVAAFLDVVIGGRAVETPPLSSVNLLEGLSRTVVYITYSQLITLVNFMKSVMSGDQLREDRMALDNLLANLPPAKPGKSSSLEMTPYNTPQLSPATTPANKKNRLPIATRSRSRTNMLMDLHMDHEGSSQETIQEVQPEEVLVISLGTGPQLTPGMMSENEVLNMQLSDGGQGDVPVDENKLHGKPDKTLRFSLCSDNLEGISEGPSNRSNSVSSLDLEGESVSELGAGPSGSNGVEALQLLEHEQATTQDNLDDKLRKFEIRDMMGLTDDRDISETVSETWSTDVLGSDFDPNIDEDRLQEIAGAAAENMLGSLLCLPGSGSVLLDPCTGSTISETTSEAWSVEVLPSDSEAPDLKQEERLQELESCSGLGSTSDDTDVREVSSRPSTPGLSVVSGISATSEDIPNKIEDLRSECSSDFGGKDSVTSPDMDEITHGAHQLTSPPSQSESLLAMFDPLSSHEGASAVVRPKVHYARPSHPPPDPPILEGAVGGNEARLPNFGSHVLTPAEMEAFKQRHSYPERLVRSRSSDIVSSVRRPMSDPSWNRRPGNEERELPPAAAIGATSLVAAPHSSSSSPSKDSSRGETEERKDSDDEKSDRNRPWWRKRFVSAMPKAPIPFRKKEKQEKDKDDLGPDRFSTLTDDPSPRLSAQAQVAEDILDKYRNAIKRTSPSDGAMANYESTGDNHDRDLSSKLLYHSDKEVMGDGESAHDSPRDEALQNISADDLPDSASQAAHPQDSAFSYRDAKKKLRLALCSADSVAFPVLTHSTRNGLPDHTDPEDNEIVCFLKVQIAEAINLQDKNLMAQLQETMRCVCRFDNRTCRKLLASIAEDYRKRAPYIAYLTRCRQGLQTTQAHLERLLQRVLRDKEVANRYFTTVCVRLLLESKEKKIREFIQDFQKLTAADDKTAQVEDFLQFLYGAMAQDVIWQNASEEQLQDAQLAIERSVMNRIFKLAFYPNQDGDILRDQVLHEHIQRLSKVVTANHRALQIPEVYLREAPWPSAQSEIRTISAYKTPRDKVQCILRMCSTIMNLLSLANEDSVPGADDFVPVLVFVLIKANPPCLLSTVQYISSFYASCLSGEESYWWMQFTAAVEFIKTIDDRK [GAPVD1]
HeLa Kyoto [1]; cell cycle stage: G1/S
  melting temperature: 49.5 °C
HeLa Kyoto [1]; cell cycle stage: mitosis
  melting temperature: 49.8 °C
HeLa Kyoto [2]; [5]
  thermal stability score: 1.88
HeLa Kyoto [2]; cell cycle stage: mitosis
  thermal stability score: 3.33
HeLa Kyoto [3]
  solubility change mitosis (log2): -0.131
HeLa Kyoto [4]
  solubility in G1/S (log2): -0.136

## MVLADLGRKITSALRSLSNATIINEEVLNAMLKEVCTALLEADVNIKLVKQLRENVKSAIDLEEMASGLNKRKMIQHAVFKELVKLVDPGVKAWTPTKGKQNVIMFVGLQGSGKTTTCSKLAYYYQRKGWKTCLICADTFRAGAFDQLKQNATKARIPFYGSYTEMDPVIIASEGVEKFKNENFEIIIVDTSGRHKQEDSLFEEMLQVANAIQPDNIVYVMDASIGQACEAQAKAFKDKVDVASVIVTKLDGHAKGGGALSAVAATKSPIIFIGTGEHIDDFEPFKTQPFISKLLGMGDIEGLIDKVNELKLDDNEALIEKLKHGQFTLRDMYEQFQNIMKMGPFSQILGMIPGFGTDFMSKGNEQESMARLKKLMTIMDSMNDQELDSTDGAKVFSKQPGRIQRVARGSGVSTRDVQELLTQYTKFAQMVKKMGGIKGLFKGGDMSKNVSQSQMAKLNQQMAKMMDPRVLHHMGGMAGLQSMMRQFQQGAAGNMKGMMGFNNM [SRP54]
HeLa Kyoto [1]; cell cycle stage: G1/S
  melting temperature: 52 °C
HeLa Kyoto [1]; cell cycle stage: mitosis
  melting temperature: 50.4 °C
HeLa Kyoto [2]; [5]
  thermal stability score: 0.232
HeLa Kyoto [2]; cell cycle stage: mitosis
  thermal stability score: 0.227
HeLa Kyoto [3]
  solubility change mitosis (log2): 0.157
HeLa Kyoto [4]
  solubility in G1/S (log2): 0.193

## MVLGPEQKMSDDSVSGDHGESASLGNINPAYSNPSLSQSPGDSEEYFATYFNEKISIPEEEYSCFSFRKLWAFTGPGFLMSIAYLDPGNIESDLQSGAVAGFKLLWILLLATLVGLLLQRLAARLGVVTGLHLAEVCHRQYPKVPRVILWLMVELAIIGSDMQEVIGSAIAINLLSVGRIPLWGGVLITIADTFVFLFLDKYGLRKLEAFFGFLITIMALTFGYEYVTVKPSQSQVLKGMFVPSCSGCRTPQIEQAVGIVGAVIMPHNMYLHSALVKSRQVNRNNKQEVREANKYFFIESCIALFVSFIINVFVVSVFAEAFFGKTNEQVVEVCTNTSSPHAGLFPKDNSTLAVDIYKGGVVLGCYFGPAALYIWAVGILAAGQSSTMTGTYSGQFVMEGFLNLKWSRFARVVLTRSIAIIPTLLVAVFQDVEHLTGMNDFLNVLQSLQLPFALIPILTFTSLRPVMSDFANGLGWRIAGGILVLIICSINMYFVVVYVRDLGHVALYVVAAVVSVAYLGFVFYLGWQCLIALGMSFLDCGHTCHLGLTAQPELYLLNTMDADSLVSR [SLC11A2]
HeLa Kyoto [1]; cell cycle stage: G1/S
  melting temperature: 58.8 °C
HeLa Kyoto [1]; cell cycle stage: mitosis
  melting temperature: 57.6 °C
HeLa Kyoto [2]; [5]
  thermal stability score: 2.43
HeLa Kyoto [2]; cell cycle stage: mitosis
  thermal stability score: -0.114
HeLa Kyoto [3]
  solubility change mitosis (log2): -0.211
HeLa Kyoto [4]
  solubility in G1/S (log2): -0.142

## MVLLHVLFEHAVGYALLALKEVEEISLLQPQVEESVLNLGKFHSIVRLVAFCPFASSQVALENANAVSEGVVHEDLRLLLETHLPSKKKKVLLGVGDPKIGAAIQEELGYNCQTGGVIAEILRGVRLHFHNLVKGLTDLSACKAQLGLGHSYSRAKVKFNVNRVDNMIIQSISLLDQLDKDINTFSMRVREWYGYHFPELVKIINDNATYCRLAQFIGNRRELNEDKLEKLEELTMDGAKAKAILDASRSSMGMDISAIDLINIESFSSRVVSLSEYRQSLHTYLRSKMSQVAPSLSALIGEAVGARLIAHAGSLTNLAKYPASTVQILGAEKALFRALKTRGNTPKYGLIFHSTFIGRAAAKNKGRISRYLANKCSIASRIDCFSEVPTSVFGEKLREQVEERLSFYETGEIPRKNLDVMKEAMVQAEEAAAEITRKLEKQEKKRLKKEKKRLAALALASSENSSSTPEECEEMSEKPKKKKKQKPQEVPQENGMEDPSISFSKPKKKKSFSKEELMSSDLEETAGSTSIPKRKKSTPKEETVNDPEEAGHRSGSKKKRKFSKEEPVSSGPEEAVGKSSSKKKKKFHKASQED [NOP56]
HeLa Kyoto [1]; cell cycle stage: G1/S
  melting temperature: 54.6 °C
HeLa Kyoto [1]; cell cycle stage: mitosis
  melting temperature: 52 °C
HeLa Kyoto [2]; [5]
  thermal stability score: -2.17
HeLa Kyoto [2]; cell cycle stage: mitosis
  thermal stability score: -6.89
HeLa Kyoto [3]
  solubility change mitosis (log2): 1.28
HeLa Kyoto [4]
  solubility in G1/S (log2): -2.05

## MVLLKEYRVILPVSVDEYQVGQLYSVAEASKNETGGGEGVEVLVNEPYEKDGEKGQYTHKIYHLQSKVPTFVRMLAPEGALNIHEKAWNAYPYCRTVITNEYMKEDFLIKIETWHKPDLGTQENVHKLEPEAWKHVEAVYIDIADRSQVLSKDYKAEEDPAKFKSIKTGRGPLGPNWKQELVNQKDCPYMCAYKLVTVKFKWWGLQNKVENFIHKQERRLFTNFHRQLFCWLDKWVDLTMDDIRRMEEETKRQLDEMRQKDPVKGMTADD [PITPNA]
HeLa Kyoto [1]; cell cycle stage: G1/S
  melting temperature: 54.9 °C
HeLa Kyoto [1]; cell cycle stage: mitosis
  melting temperature: 55.5 °C
HeLa Kyoto [2]; [5]
  thermal stability score: -1.26
HeLa Kyoto [2]; cell cycle stage: mitosis
  thermal stability score: -1.48
HeLa Kyoto [3]
  solubility change mitosis (log2): -0.0595
HeLa Kyoto [4]
  solubility in G1/S (log2): 0.15
